Results reported in the nanobody polyreactivity screen of Harvey et al. (2022).

test: yeast display, Sf9 membrane polyspecificity reagent, FACS + sequencing; frameworks hold sequencing errors
Summary of the method: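 Polyreactivity labels are assigned by the sorting gate from which each nanobody was recovered. The gates were low and high (top ~1%), set on anti-HA fluorescence for expression and streptavidin fluorescence for reagent binding. Before sorting, galactose-induced (36–48 hours) yeast display cells were stained for 1 hour at 4 °C with 10% biotinylated, detergent-solubilized Sf9 membrane reagent.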

Sequence	polyreactivity (PSR sort gate)
QVQLVESGGGLVQAGGSLRLSCAASGSTFHYYAMGWYRQAPGKERELVATITRRGDSTYYADSVKGRFTISRDKAKNTVYLQMNSLKPEDTAVYYCATRYWRSGYDWPYGYWGQGTQVTVSS	high polyreactivity
QVQLVESGGGLVQAGGSLRLSCAASGSTFIANDMGWYRQAPGKERELVAAISWSGGSTYADSVKGRFTISRDNAKNTVYLQMNSLKPEDTAVYYCAADWQVVWDYNYWGQGTQVTVSS	low polyreactivity
QVQLVESGGGLVQAGGSLRLSCAASGSTFIAYAMGWYRQAPGKERELVAAITKSGGRTYYADSVKGRFTISRDNAKNTVYLQMNSLKPEDTAVYYCAKLVPVYSHPYAYDYWGQGTQVTVSS	high polyreactivity
QVQLVESGGGLVQAGGSLRLSCAASGSTFIDYAMGWYRQAPGKDRELVAAITWSGSSTYYADSVKGRFTISRDNAKNTVDLQMNSLKPEDTAVYYCAARYWYQSYHTYGYYSWGQGTQVTVSS	low polyreactivity
QVQLVESGGGLVQAGGSLRLSCAASGSTFIDYAMGWYRQAPGKERELVAAIDQGGGRTYYADSVKGRFTISRDNAKNTVYLQMNSLKPEDTAVYYCAATSRVVGEGGYEYWGQGTQVTVSS	low polyreactivity
QVQLVESGGGLVQAGGSLRLSCAASGSTFIFNTMGWYRQAPGKERELVATITGSGGSTYYADSVKGRFTISRDNAKNTVYLQMNSLKPEDTAVYYCAAVGDQNEYDYWGQGTQVTVSS	low polyreactivity
QVQLVESGGGLVQAGGSLRLSCAASGSTFIFNTMGWYRQAPGNERELVAAIRLSGGSTYYADSVKGRFTLSRDNAKYTVYLQMNSLKPEDTAVYYCARRLATRGHTYDYWGQGTQVTVSS	low polyreactivity
QVQLVESGGGLVQAGGSLRLSCAASGSTFIFYAMGWYRQAPGKERELVAAISWSGGSTYYADSVKGRFTISRDNAKYTVYLQMNSLKPEDTAVYYCITLHRYSSERYDYWGQGTQVTVSS	high polyreactivity
QVQLVESGGGLVQAGGSLRLSCAASGSTFIFYAMGWYRQAPGKERELVAAITSSGGSTYYADSVKGRFTISRDNAKNTVYLQMNSLKPEDTAVYYCNTLAYTYGSKFGYWGQGTQVTVSS	low polyreactivity
QVQLVESGGGLVQAGGSLRLSCAASGSTFIFYAMGWYRQAPGKERELVASITSRAASTYYADSVKGRFTISRDIAKNTVYLQMNSLKPEDTAVYYCAATFSYTLFWWSSFLLYDYWGQGTQVTVSS	low polyreactivity
QVQLVESGGGLVQAGGSLRLSCAASGSTFIGNAMGWYRQAPGKEREFVATISQNGGRTYYADSVKGRFTISRDNAKNTVYLQMNSLKPEDTAVYYCAADDWRWGYDYWGQGTQVTVSS	high polyreactivity
QVQLVESGGGLVQAGGSLRLSCAASGSTFIGYAMGWYRQAPGKERELVAAISRRGSRTYYADSVKGRFTISRDNAKNTVYLQINSLKPEDTAVYYCNRDYREYGYAYSGRYYWGQGTQVTVSS	high polyreactivity
QVQLVESGGGLVQAGGSLRLSCAASGSTFIGYAMGWYRQAPGKERELVAAISRSDGSTYYADSVKGRFTISRDHAKNTVYLQMNSLKPEDTAVYYCNADYYRWYDYWGQGTQVTLSS	low polyreactivity
QVQLVESGGGLVQAGGSLRLSCAASGSTFIHNAMGWYRQAPGNERELVAAITSGGSTYYADSVKGRFTISRDNAMNTVYLQMNSLKPEDTAVYYCNRGSWRYSTMEYWGQGTLVTVSS	high polyreactivity
QVQLVESGGGLVQAGGSLRLSCAASGSTFIIYSMGWYRQAPGKERELVATISTRGTSTYYADSVKGRFTISRDNAKNTVYLQMNSLKPEDTAVYYCNARRRGYGNRYTFDYWGQGTQVTVSS	high polyreactivity
QVQLVESGGGLVQAGGSLRLSCAASGSTFIKNAMGWYRQAPGKERELVAAINNSGSRTYYADSVKGRFTISRDNAKNTVYLQMNSLKPEDTAVYYCAAGRTYGMGYWGQGTQVTVSS	high polyreactivity
QVQLVESGGGLVQAGGSLRLSCAASGSTFILYAMGWYRQAPGKERELVAAISKRGGSTYYADSVKGRFTISRDNATHTVYFQLKSLKPEDTAVYYLNKKNPQDLTENGYWGQGTEVTVSS	high polyreactivity
QVQLVESGGGLVQAGGSLRLSCAASGSTFINYAMGWYRQAPGKERELVAAYADSVKGRFTISRDNAKNTVYLQMNSLKPEDTAVYYCAARYVYPHQWTPYIRPYDYWGQGTQVTVSS	low polyreactivity
QVQLVESGGGLVQAGGSLRLSCAASGSTFIPYAMGWYRQAPGKERELVAGINGGDGSTYYADSVKGRFTISRDNAKNTVYLQMNSLKPEDTAVYYCAKKNPLVFTSGMDYWGQGTQVTVSS	low polyreactivity
QVQLVESGGGLVQAGGSLRLSCAASGSTFISYAMGWYRQAPGKERELVAAISSSGGSTYYADSVKGRFTISRDNAKYTVYLQMNSLKPEDTAVYYCAAESVYYRSWRYYYWGQGTQVTVSS	high polyreactivity
QVQLVESGGGLVQAGGSLRLSCAASGSTFITYAMGRYRQAPGKERELVAAIRWSGGGTYYADSVKGRFTISRDNAKNTVYLQMNSLKPEDTAVYYCAADHFNYTTGRDYWGQGTQVTVSS	low polyreactivity

Sequence	polyreactivity (PSR sort gate)
QVQLVESGGGLVQAGGSLRLSCAASGSTFITYAMGWYRQAPGKERELVAAIRVIGGRTYYADSVKGRFTISRDNAKNTVYLQMNSLKPEDTAVYYCAVTGRGWGYDYWGQGTQVTVSS	high polyreactivity
QVQLVESGGGLVQAGGSLRLSCAASGSTFITYGMGWYRQAPGKERELVARITLSGGSTYYADSVKGRFTISRDNAKNTVYLQINSLKPEDTAVYYCATDFGWQYYVLDGYYWGQGTQVTVSS	low polyreactivity
QVQLVESGGGLVQAGGSLRLSCAASGSTFIVNAMGWYRQAPGKERELVAAITEDGDTTYYADSVKGRFTISRDHAKKTVYLQMNSLKPEDTAVYYCAARTYRGLADDYWGQGTQVTVSS	high polyreactivity
QVQLVESGGGLVQAGGSLRLSCAASGSTFIYNAMGWYRQAPGKERELVAAITDGSTKYADSVKGRFTISRDNAKNTVYLQMNSLKPEDTAVYYCNAYVWRWRYDSWGQGTQVTVSS	low polyreactivity
QVQLVESGGGLVQAGGSLRLSCAASGSTFKANAMGWYRQAPGKERELVASIRFSAGSTYYADSVKGRFTISRDNAKNTVYLQMNSLKPEDTAVYYCAAGRHVLKRRYDYWGQGTQVTVSS	low polyreactivity
QVQLVESGGGLVQAGGSLRLSCAASGSTFKFNAMGWYRQAPGKERELVAAISRGGRTNYADSVKGRFTISRDNAKNTVYLQMNSLKPEDTAFYYCAADYSTLYKDDYWGQGTQVTVSS	low polyreactivity
QVQLVESGGGLVQAGGSLRLSCAASGSTFKGNAMGWYRQAPGKERELVAAINRSGTSTYYADSVKGRFTISRDNAKNTVYLQMNSLKPEDTAVYYCAKKYFGHRFDYWGQGTQVTVSS	high polyreactivity
QVQLVESGGGLVQAGGSLRLSCAASGSTFKIYAMGWYRPAPGKERELVAAITRGASTYADSVKGRFTISRDNAKNTVYLQMNSLKPEDTAVYYCAAYRRPSRSGDKPIGFDYWGQGTQVTVSS	high polyreactivity
QVQLVESGGGLVQAGGSLRLSCAASGSTFKIYAMGWYRQAPGKERELVARITSGGSTNYADSVKGRFTISRDNAKNTVYLQMNSLKPEDTAVYYCAVPWYTRESGAYDYWGQGTQVTVSS	high polyreactivity
QVQLVESGGGLVQAGGSLRLSCAASGSTFKKYAMGWYRQAPGKERELVAAITWTGGSTYYADSVKGRFTISRDNAKNTVYFQMNSLKPEDTAVYYCAAYKTYAVKYYWGQGTQVTVSS	high polyreactivity
QVQLVESGGGLVQAGGSLRLSCAASGSTFKNNAMGWYRQAPGKEREFVASISKRGGSTYYADSEKGRFTISRDNAKNTVYLQMNSLKPEDTAVYYCAAEELRYGLYEYDYWGLGTQVTVSS	high polyreactivity
QVQLVESGGGLVQAGGSLRLSCAASGSTFKNYVMGWYRQAPGKERELVAAISRSGGRTYYADSVKGRFTISRDNAKNTVYLQMYSLKPEVTAVYYCATPDQVELSSYDYWGEGTQVTVSS	high polyreactivity
QVQLVESGGGLVQAGGSLRLSCAASGSTFKPNAMGWYRQAPGKERELVAAITSGSTYYADSVKGRFTISRDNAKNSVYLQMNSLIPEDSAVYYCATSFRGKSPYRNSGSYYFWGQGTQVTVSS	high polyreactivity
QVQLVESGGGLVQAGGSLRLSCAASGSTFKQYAKGWYRQAPGKERELVAAISSVGRTYYADSVKGRFTISRDNAKNTVYLQINSLKPEDTAVYYCNRRWYTHWGQGTQVTVSS	high polyreactivity
QVQLVESGGGLVQAGGSLRLSCAASGSTFKRNAMGWYRQAPGKDRELVAAISFRGGSTYYADSVKGRFTISRDNAKNTVYLQMNSLKPEDTAVYYCAAGIYRIRGGGISFDYWGQGTQVTVSS	high polyreactivity
QVQLVESGGGLVQAGGSLRLSCAASGSTFKRNAMGWYRQAPGKERELVASISKRGGSTYYADSVKGRFTISRDNAKNTVYLQMNSLKPEDTAVYYCAKTWQNGDRNTIGSVYAYYSWGQGTQVTVSS	high polyreactivity
QVQLVESGGGLVQAGGSLRLSCAASGSTFKRNAMGWYRQAPVKERELVATITRRGGSTYADSVKGRFTISRDNAKNTVYLQMNSLKAEDTAVYYCARDGFSGGMDYWGQGTQVTVSS	low polyreactivity
QVQLVESGGGLVQAGGSLRLSCAASGSTFKRYAMGWSRQAPGKERECVAGITWRGGRTYYADSVKGRFKISRDIAKNTVYLQMNSLKPEDTSVYYCAATFYTSSHLAGYYWGQGTQVTVSS	high polyreactivity
QVQLVESGGGLVQAGGSLRLSCAASGSTFKRYAMGWYRQAPGKDRELVASISSGGSPNYADSVKGRFTISRDNAKNTVYLQMNSLKPEDTAVYYCAVSYRSFRYFWERYSSWGQGTQVTVSS	high polyreactivity
QVQLVESGGGLVQAGGSLRLSCAASGSTFKRYAMGWYRQAPGKERELVAAITNGDRTNYADSVKGRFTISRDNAKNTVYLHMNSLKPEDTALYYCAAAYSRYTSRFYYWGQGTQVTVSS	high polyreactivity
